Here are results for four molecules from US20260242735A1 (UNIVERSIT T BASEL, published 2026).

The chains are these.
B1: Refmab #4 (antibody, V domains shown)
VH: QVQLVQSGAEVKKPGESVKVSCKASGYTFTNYGMNWVKQAPGQGLEWMGWINTYTGEPTYADKFQGRVTMTTDTSTSTAYMEIRNLGGDDTAVYYCARWSWSDGYYVYFDYWGQGTSVTVSS
VL: DIVMTQSPDSLTVSLGERTTINCKSSQSVLDSSTNKNSLAWYQQKPGQPPKLLLSWASTRESGIPDRFSGSGSGTDFTLTIDSPQPEDSATYYCQQSAHFPITFGQGTRLEIK
notes: The alanine scan used IgG or Fab
B2: Refmab #1 (antibody, V domains shown)
VH: EVQLVQSGAEVKKPGSSVKVSCKASGYTITDSNIHWVRQAPGQSLEWIGYIYPYNGGTDYNQKFKNRATLTVDNPTNTAYMELSSLRSEDTAFYYCVNGNPWLAYWGQGTLVTVSS
VL: DIQLTQSPSTLSASVGDRVTITCRASESLDNYGIRFLTWFQQKPGKAPKLLMYAASNQGSGVPSRFSGSGSGTEFTLTISSLQPDDFATYYCQQTKEVPWSFGQGTKVEVK
notes: The alanine scan used IgG or Fab; also called hP67.6
B3: Refmab #2 (antibody, V domains shown)
VH: QVQLVQSGAEVKKPGSSVKVSCKASGGTFSDYAISWVRQAPGQGLEWMGRIIPILGVADYAQKFQGRVTITADKSTRTAYMELSSLRSEDTAVYYCARNWADAFDIWGQGTMVTVSS
VL: DIQLTQSPSSLSASVGDRVTITCRASQGISSVLAWYQQKPGKAPKLLIYDASSLESGVPSRFSGSGSGTDFTLTISSLQPEDFATYYCQQFDSSITFGQGTKLEIK
notes: as for B1
B4: Refmab #3 (antibody, V domains shown)
VH: QVQLVQSGAEVKKPGSSVKVSCKASGYTFTDYNMHWVRQAPGQGLEWIGYIYPYNGGTGYNQKFKSKATITADESTNTAYMELSSLRSEDTAVYYCARGRPAMDYWGQGTLVTVSS
VL: DIQMTQSPSSLSASVGDRVTITCRASESVDNYGISFMNWFQQKPGKAPKLLIYAASNQGSGVPSRFSGSGSGTDFTLTISSLQPDDFATYYCQQSKEVPWTFGQGTKVEIK
notes: as for B1

human CD33 P301A, sequence (P20138 18-364 P301A limits assumed): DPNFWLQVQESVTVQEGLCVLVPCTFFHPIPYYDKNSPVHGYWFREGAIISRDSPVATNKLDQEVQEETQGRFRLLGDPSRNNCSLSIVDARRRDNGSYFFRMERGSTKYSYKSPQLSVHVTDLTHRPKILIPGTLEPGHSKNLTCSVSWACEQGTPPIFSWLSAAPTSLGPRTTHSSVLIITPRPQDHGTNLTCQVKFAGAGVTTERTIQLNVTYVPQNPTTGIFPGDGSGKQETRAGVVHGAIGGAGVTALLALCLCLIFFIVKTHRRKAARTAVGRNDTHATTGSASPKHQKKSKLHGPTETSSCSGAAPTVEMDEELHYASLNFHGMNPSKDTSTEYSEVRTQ
human CD33 E252A, sequence (P20138 18-364 E252A limits assumed): as the sequence (P20138 18-364 P301A limits assumed) above, with E235A, A284P counted along it
human CD33 K309A, sequence (P20138 18-364 K309A limits assumed): as the sequence (P20138 18-364 P301A limits assumed) above, with A284P, K292A counted along it
human CD33 H300A, sequence (P20138 18-364 H300A limits assumed): as the sequence (P20138 18-364 P301A limits assumed) above, with H283A, A284P counted along it
human CD33 A261S, sequence (P20138 18-364 A261S limits assumed): as the sequence (P20138 18-364 P301A limits assumed) above, with A244S, A284P counted along it
human CD33 R296A, sequence (P20138 18-364 R296A limits assumed): as the sequence (P20138 18-364 P301A limits assumed) above, with R279A, A284P counted along it

The target in the first assay is human CD33 K250A (human, UniProt P20138 18-364). Briefly: alanine scan, flow cytometry, HEK293-T.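 Note: antibody binding to each alanine-substituted CD33 mutant expressed transiently in HEK293-T, read as fluorescence minus background, mean of duplicates, relative to wild-type CD33 set as 100%.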 Background: In flow cytometry, cells or beads pass a laser one at a time.
human CD33 K250A, sequence (P20138 18-364 K250A limits assumed): as the sequence (P20138 18-364 P301A limits assumed) above, with K233A, A284P counted along it
As for B1, the “Mean % WT Binding” value is 106 % WT binding.
Regarding B2, the “Mean % WT Binding” value turned out to be 86.7 % WT binding.
For B3, the “Mean % WT Binding” value came out at 108 % WT binding.
Still for that read-out and setting: to B4 belongs 146 % WT binding.

A further assay has as its target human CD33 E252A (human, UniProt P20138 18-364). Briefly: alanine scan, flow cytometry, HEK293-T.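 Note: antibody binding to each alanine-substituted CD33 mutant expressed transiently in HEK293-T, read as fluorescence minus background, mean of duplicates, relative to wild-type CD33 set as 100%.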
With B1, the “Mean % WT Binding” value was determined as 115 % WT binding.
On the same count and under the same terms, for B2 the value was 98.8 % WT binding; for B3, 116 % WT binding; for B4, 96.3 % WT binding.

In a further assay the target is human CD33 G260A (human, UniProt P20138 18-364). Briefly: alanine scan, flow cytometry, HEK293-T.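 Note: antibody binding to each alanine-substituted CD33 mutant expressed transiently in HEK293-T, read as fluorescence minus background, mean of duplicates, relative to wild-type CD33 set as 100%.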
human CD33 G260A, sequence (P20138 18-364 G260A limits assumed): as the sequence (P20138 18-364 P301A limits assumed) above, with G243A, A284P counted along it
B1: the “Mean % WT Binding” value stood at 106 % WT binding.
B2: the “Mean % WT Binding” value came out at 81.9 % WT binding.
Same read-out and setting: for B3 the value was 105 % WT binding.
For B4, the “Mean % WT Binding” value was found to be 140 % WT binding.

The next assay concerns the target human CD33 A261S (human, UniProt P20138 18-364). Description: alanine scan, flow cytometry, HEK293-T.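 Note: antibody binding to each alanine-substituted CD33 mutant expressed transiently in HEK293-T, read as fluorescence minus background, mean of duplicates, relative to wild-type CD33 set as 100%.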
As to B1, the “Mean % WT Binding” value is 65.8 % WT binding.
On to B2, for which the “Mean % WT Binding” value was 84.1 % WT binding.
As to B3, the “Mean % WT Binding” value turned out to be 100 % WT binding.
For the molecule B4, the “Mean % WT Binding” value stood at 121 % WT binding.

The target in a further assay is human CD33 G266A (human, UniProt P20138 18-364). Briefly: alanine scan, flow cytometry, HEK293-T.
human CD33 G266A, sequence (P20138 18-364 G266A limits assumed): as the sequence (P20138 18-364 P301A limits assumed) above, with G249A, A284P counted along it
Turning to B1, the “Mean % WT Binding” value worked out at 112 % WT binding.
With B2, the “Mean % WT Binding” value was 100 % WT binding.
On to B3, for which the “Mean % WT Binding” value came to 116 % WT binding.
On to B4, for which the “Mean % WT Binding” value is 97.8 % WT binding.

In a further assay the target is human CD33 C276A (human, UniProt P20138 18-364). Description: alanine scan, flow cytometry, HEK293-T.
human CD33 C276A, sequence (P20138 18-364 C276A limits assumed): as the sequence (P20138 18-364 P301A limits assumed) above, with C259A, A284P counted along it
Take B1: the “Mean % WT Binding” value was 96.9 % WT binding.
Still for that read-out and setting: to B2 belongs 83.4 % WT binding; to B3, 103 % WT binding.
As for B4, the “Mean % WT Binding” value was 115 % WT binding.

Another assay deals with human CD33 K288A (human, UniProt P20138 18-364). Briefly: alanine scan, flow cytometry, HEK293-T.
human CD33 K288A, sequence (P20138 18-364 K288A limits assumed): as the sequence (P20138 18-364 P301A limits assumed) above, with K271A, A284P counted along it
Consider B1, for which the “Mean % WT Binding” value was determined as 100 % WT binding.
In the case of B2, the “Mean % WT Binding” value is 112 % WT binding.
For the molecule B3, the “Mean % WT Binding” value was determined as 108 % WT binding.
As to B4, the “Mean % WT Binding” value was found to be 107 % WT binding.

In the next assay the target is human CD33 A289S (human, UniProt P20138 18-364). Description: alanine scan, flow cytometry, HEK293-T.
human CD33 A289S, sequence (P20138 18-364 A289S limits assumed): as the sequence (P20138 18-364 P301A limits assumed) above, with A272S, A284P counted along it
Take B1: the “Mean % WT Binding” value stood at 95 % WT binding.
Consider B2, for which the “Mean % WT Binding” value was found to be 97.1 % WT binding.
Regarding B3, the “Mean % WT Binding” value amounted to 111 % WT binding.
For the molecule B4, the “Mean % WT Binding” value came out at 82.8 % WT binding.

A further assay concerns the target human CD33 R296A (human, UniProt P20138 18-364). Briefly: alanine scan, flow cytometry, HEK293-T.
On to B1, for which the “Mean % WT Binding” value is 106 % WT binding.
Turning to B2, the “Mean % WT Binding” value is 101 % WT binding.
Same read-out and setting: to B3 belongs 111 % WT binding; to B4, 92.9 % WT binding.

Another assay addresses human CD33 H300A (human, UniProt P20138 18-364). Briefly: alanine scan, flow cytometry, HEK293-T.
B1: the “Mean % WT Binding” value amounted to 95.2 % WT binding.
Take B2: the “Mean % WT Binding” value was 76.5 % WT binding.
Take B3: the “Mean % WT Binding” value was 98.9 % WT binding.
Consider B4, for which the “Mean % WT Binding” value worked out at 68.3 % WT binding.

Another assay addresses human CD33 P301A (human, UniProt P20138 18-364). Briefly: alanine scan, flow cytometry, HEK293-T.
For the molecule B1, the “Mean % WT Binding” value turned out to be 97.9 % WT binding.
Turning to B2, the “Mean % WT Binding” value was determined as 101 % WT binding.
On to B3, for which the “Mean % WT Binding” value is 91.8 % WT binding.
On to B4, for which the “Mean % WT Binding” value amounted to 93.9 % WT binding.

For another assay, the target named is human CD33 T303A (human, UniProt P20138 18-364). Description: alanine scan, flow cytometry, HEK293-T.
human CD33 T303A, sequence (P20138 18-364 T303A limits assumed): as the sequence (P20138 18-364 P301A limits assumed) above, with A284P, T286A counted along it
Turning to B1, the “Mean % WT Binding” value was 81.2 % WT binding.
In the case of B2, the “Mean % WT Binding” value stood at 94 % WT binding.
In the case of B3, the “Mean % WT Binding” value came out at 96.7 % WT binding.
In the case of B4, the “Mean % WT Binding” value is 72.7 % WT binding.

Another assay deals with human CD33 S307A (human, UniProt P20138 18-364). Briefly: alanine scan, flow cytometry, HEK293-T.
human CD33 S307A, sequence (P20138 18-364 S307A limits assumed): as the sequence (P20138 18-364 P301A limits assumed) above, with A284P, S290A counted along it
Consider B1, for which the “Mean % WT Binding” value was found to be 114 % WT binding.
Still for that read-out and setting: to B2 belongs 94.8 % WT binding.
Take B3: the “Mean % WT Binding” value was 112 % WT binding.
Still for that read-out and setting: for B4 the value was 60.1 % WT binding.

Another assay has as its target human CD33 K309A (human, UniProt P20138 18-364). Description: alanine scan, flow cytometry, HEK293-T.
For B1, the “Mean % WT Binding” value came out at 99.9 % WT binding.
Consider B2, for which the “Mean % WT Binding” value turned out to be 92.7 % WT binding.
Take B3: the “Mean % WT Binding” value turned out to be 111 % WT binding.
B4: the “Mean % WT Binding” value turned out to be 92 % WT binding.

The target in a further assay is human CD33 H317A (human, UniProt P20138 18-364). Description: alanine scan, flow cytometry, HEK293-T.
human CD33 H317A, sequence (P20138 18-364 H317A limits assumed): as the sequence (P20138 18-364 P301A limits assumed) above, with A284P, H300A counted along it
As for B1, the “Mean % WT Binding” value turned out to be 82.6 % WT binding.
Consider B2, for which the “Mean % WT Binding” value came to 80.8 % WT binding.
In the case of B3, the “Mean % WT Binding” value is 99.8 % WT binding.
For B4, the “Mean % WT Binding” value came out at 157 % WT binding.
